Assay results reported in paper PMC6010752, “Development of GMP‐1 a molecular chaperone network modulator protecting mitochondrial function and its assessment in fly and mice models of Alzheimer's disease” (Journal of Cellular and Molecular Medicine, 2018).
Ends that are not written are not given here.

T1: FKBP51 (Homo sapiens, UniProt Q13451)
T1 construct: gene FKBP5; full-length (Gst-tag-free)
T1 sequence (Q13451 1-457): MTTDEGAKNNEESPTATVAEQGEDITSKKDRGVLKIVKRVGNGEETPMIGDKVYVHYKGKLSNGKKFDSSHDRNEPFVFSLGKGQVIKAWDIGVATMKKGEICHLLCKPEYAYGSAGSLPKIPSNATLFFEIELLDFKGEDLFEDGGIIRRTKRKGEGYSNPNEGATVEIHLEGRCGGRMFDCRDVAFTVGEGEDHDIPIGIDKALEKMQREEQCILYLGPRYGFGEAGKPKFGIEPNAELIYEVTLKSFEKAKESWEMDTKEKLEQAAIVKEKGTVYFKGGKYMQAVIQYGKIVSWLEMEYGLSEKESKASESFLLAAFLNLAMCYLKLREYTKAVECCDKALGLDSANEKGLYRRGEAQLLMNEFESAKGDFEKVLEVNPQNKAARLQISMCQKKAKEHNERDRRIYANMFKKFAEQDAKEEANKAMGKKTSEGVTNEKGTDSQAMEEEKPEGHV

T2: Tom70 (Homo sapiens, UniProt O94826)
T2 construct: gene TOMM70; cytoplasm-exposed domain of Tom70, amino acids 65-608 (Gst-tag-free)
T2 sequence (O94826 65-608): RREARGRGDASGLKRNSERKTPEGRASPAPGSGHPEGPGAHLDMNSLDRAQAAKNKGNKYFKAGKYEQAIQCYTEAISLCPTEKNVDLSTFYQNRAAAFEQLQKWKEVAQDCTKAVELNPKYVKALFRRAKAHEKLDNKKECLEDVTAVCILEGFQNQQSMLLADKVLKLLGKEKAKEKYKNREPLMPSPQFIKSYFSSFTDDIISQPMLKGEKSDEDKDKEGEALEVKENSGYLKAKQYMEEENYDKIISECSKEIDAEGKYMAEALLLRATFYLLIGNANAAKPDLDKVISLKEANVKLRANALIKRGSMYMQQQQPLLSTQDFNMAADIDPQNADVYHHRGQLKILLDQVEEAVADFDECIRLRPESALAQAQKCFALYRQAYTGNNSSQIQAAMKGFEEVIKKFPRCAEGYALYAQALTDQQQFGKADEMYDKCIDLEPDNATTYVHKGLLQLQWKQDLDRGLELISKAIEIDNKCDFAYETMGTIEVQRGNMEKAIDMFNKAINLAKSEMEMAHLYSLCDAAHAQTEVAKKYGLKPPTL

T3: Tom34 (Homo sapiens, UniProt Q15785)
T3 construct: gene TOMM34; full-length (Gst-tag-free)
T3 sequence (Q15785 1-309): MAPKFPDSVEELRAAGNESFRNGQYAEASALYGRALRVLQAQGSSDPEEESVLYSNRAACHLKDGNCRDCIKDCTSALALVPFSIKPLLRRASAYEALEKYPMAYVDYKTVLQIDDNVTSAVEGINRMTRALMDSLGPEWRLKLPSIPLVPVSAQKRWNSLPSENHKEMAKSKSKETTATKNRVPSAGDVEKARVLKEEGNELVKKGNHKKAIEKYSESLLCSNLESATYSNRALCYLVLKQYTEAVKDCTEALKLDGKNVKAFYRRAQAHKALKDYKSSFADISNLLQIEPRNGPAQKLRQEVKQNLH

T4: Tom34 (human, UniProt Q15785 1-309)
T4 construct: Tom34, human TPR protein, full length; Cloned into a pGEX6 vector; cDNA from the IMAGE consortium; source: E. coli BL21, purified (Gst‐trap 4B), Gst removed with PreScission protease
T4 sequence (looked up): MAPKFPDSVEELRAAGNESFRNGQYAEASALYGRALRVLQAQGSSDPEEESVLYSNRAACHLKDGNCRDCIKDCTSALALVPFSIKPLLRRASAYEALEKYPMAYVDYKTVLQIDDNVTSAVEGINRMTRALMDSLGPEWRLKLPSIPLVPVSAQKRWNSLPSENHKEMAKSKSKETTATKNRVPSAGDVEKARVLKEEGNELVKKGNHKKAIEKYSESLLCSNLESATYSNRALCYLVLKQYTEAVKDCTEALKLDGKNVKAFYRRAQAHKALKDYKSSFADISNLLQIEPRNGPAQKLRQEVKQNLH

T5: PP5 (human, UniProt P53041 1-499)
T5 construct: PP5, human TPR protein, full length; Cloned into a pGEX6 vector; cDNA from the IMAGE consortium; source: E. coli BL21, purified (Gst‐trap 4B), Gst removed with PreScission protease
T5 sequence (looked up): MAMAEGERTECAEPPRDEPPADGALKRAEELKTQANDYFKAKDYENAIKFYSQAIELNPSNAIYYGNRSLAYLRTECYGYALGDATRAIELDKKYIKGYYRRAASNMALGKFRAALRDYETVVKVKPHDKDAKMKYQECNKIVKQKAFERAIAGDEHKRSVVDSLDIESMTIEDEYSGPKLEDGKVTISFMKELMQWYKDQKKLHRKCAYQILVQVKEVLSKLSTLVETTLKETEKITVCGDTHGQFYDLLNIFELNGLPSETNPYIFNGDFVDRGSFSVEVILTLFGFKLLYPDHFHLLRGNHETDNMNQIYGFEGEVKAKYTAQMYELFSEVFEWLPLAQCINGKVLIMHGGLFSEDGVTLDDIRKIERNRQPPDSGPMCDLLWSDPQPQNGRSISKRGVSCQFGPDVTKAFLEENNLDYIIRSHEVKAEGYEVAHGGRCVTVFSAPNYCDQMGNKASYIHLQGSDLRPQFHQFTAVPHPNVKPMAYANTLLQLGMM

T6: Tom70, cytoplasm‐exposed domain, amino acids 65‐608 (human, UniProt O94826 65-608)
T6 construct: Tom70, human, mitochondrial import receptor, cytoplasm‐exposed domain, amino acids 65‐608; Cloned into a pGEX6 vector; cDNA from the IMAGE consortium; also called human Tom70 protein; source: E. coli BL21, purified (Gst‐trap 4B), Gst removed with PreScission protease
T6 sequence (looked up): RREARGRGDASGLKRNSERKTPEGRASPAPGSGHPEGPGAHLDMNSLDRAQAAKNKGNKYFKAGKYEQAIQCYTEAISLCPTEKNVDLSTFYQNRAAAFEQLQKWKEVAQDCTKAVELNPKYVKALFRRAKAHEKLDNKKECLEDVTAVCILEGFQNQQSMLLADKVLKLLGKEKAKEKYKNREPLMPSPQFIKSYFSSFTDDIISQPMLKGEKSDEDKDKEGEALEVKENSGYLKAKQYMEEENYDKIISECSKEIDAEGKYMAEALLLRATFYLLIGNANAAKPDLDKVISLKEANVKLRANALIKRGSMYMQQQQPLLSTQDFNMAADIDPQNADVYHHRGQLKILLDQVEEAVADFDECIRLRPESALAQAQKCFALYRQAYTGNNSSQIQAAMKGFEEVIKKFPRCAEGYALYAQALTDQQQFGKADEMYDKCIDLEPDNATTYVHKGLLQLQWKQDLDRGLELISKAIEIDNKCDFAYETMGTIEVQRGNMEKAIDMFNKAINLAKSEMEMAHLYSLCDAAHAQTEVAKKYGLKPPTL

T7: FKBP51 (human, UniProt Q13451 1-457)
T7 construct: FKBP51, human TPR protein, full length; Cloned into a pGEX6 vector; cDNA from the IMAGE consortium; source: E. coli BL21, purified (Gst‐trap 4B), Gst removed with PreScission protease
T7 sequence (looked up): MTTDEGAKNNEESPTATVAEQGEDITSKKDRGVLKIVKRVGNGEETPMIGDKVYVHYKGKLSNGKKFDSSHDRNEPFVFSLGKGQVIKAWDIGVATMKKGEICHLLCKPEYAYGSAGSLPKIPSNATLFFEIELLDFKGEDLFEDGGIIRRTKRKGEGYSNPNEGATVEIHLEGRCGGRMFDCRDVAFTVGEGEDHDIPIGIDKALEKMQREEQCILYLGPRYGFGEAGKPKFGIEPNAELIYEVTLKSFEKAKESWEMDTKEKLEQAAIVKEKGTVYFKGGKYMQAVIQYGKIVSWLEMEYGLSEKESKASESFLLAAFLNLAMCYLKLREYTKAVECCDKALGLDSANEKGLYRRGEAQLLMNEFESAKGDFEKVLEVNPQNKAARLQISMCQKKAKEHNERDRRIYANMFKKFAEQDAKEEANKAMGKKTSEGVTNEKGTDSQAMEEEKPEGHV


Tests used:
FKBP51 [1] = molecular target: T1, FKBP51; test: dot-blot competition of Hsp90 C-terminal peptide-HRP (C90-HRP) with purified protein; assay type: binding
Tom70 = molecular target: T2, Tom70; test: as above; assay type: binding
Tom34 [2] = molecular target: T3, Tom34; test: as above; assay type: binding
Tom34 [3] = molecular target: T4, Tom34; test: far-Western, overlay or dot blot; Gst‐tag‐free proteins applied to nitrocellulose membrane, blocked with 3% BSA in TBS‐T; C90‐HRP (1 × 500 dilution) incubated for 1 hour; ECL signal; with DMSO or increasing concentrations of the compound GMP‐1; details: both partners purified
PP5 = molecular target: T5, PP5; test: as above; details: both partners purified
[4] = molecular target: T6, Tom70, cytoplasm‐exposed domain, amino …; test: as above; details: both partners purified
FKBP51 [5] = molecular target: T7, FKBP51; test: as above; details: both partners purified

Molecule | IC50 (FKBP51 [1]) [µM] | IC50 (Tom70) [µM] | IC50 (Tom34 [2]) [µM] | binding result (Tom34 [3]) | binding result (PP5) | binding result [4] | binding result (FKBP51 [5])
COCc1cc(O)n2c(n1)nc1ccccc12 [GMP-1, 2‐(methoxymethyl)pyrimido[1,2‐a]benzimidazol‐4‐ol] | 150 | 45 | 180 |  |  |  | 
HHHHHHDDTSRMEEVD-OH (also: coupled to horse-radish peroxidase (HRP), 10 amino acids of the C‐terminus of human Hsp90 alpha; also called Hsp90‐derived peptide; Hsp90 peptide conjugated to HRP; source: synthetic peptide (GL Biochem, Shanghai), coupled to HRP with the Lightning‐link HRP labeling kit; not shown: His6, N-terminal, kept) |  |  |  | binds | binds | binds | binds
